According to publication PMC6093294:

Columns and labels:
Assay in all cases: purified protein
purified protein [1] = substrate: CCCCCCCCCCCCCCCC(=O)SCCNC(=O)CCNC(=O)[C@H](O)C(C)(C)COP(=O)(O)OP(=O)(O)OC[C@H]1O[C@@H](n2cnc3c(N)ncnc32)[C@H](O)[C@@H]1OP(=O)(O)O; settings: 60 mM tryptamine, 300 mM Tris pH 8.0, 150 μM DTNB, 22°C
purified protein [2] = substrate: CCCCCCCCCCCCCC(=O)SCCNC(=O)CCNC(=O)[C@H](O)C(C)(C)COP(=O)(O)OP(=O)(O)OC[C@H]1O[C@@H](n2cnc3c(N)ncnc32)[C@H](O)[C@@H]1OP(=O)(O)O; format: biochemical, Bombyx mori; settings: 60 mM tryptamine, 300 mM Tris pH 8.0, 150 μM DTNB, 22°C
purified protein [3] = substrate: CCCCC/C=C\C/C=C\C/C=C\C/C=C\CCCC(=O)SCCNC(=O)CCNC(=O)[C@H](O)C(C)(C)COP(=O)(O)OP(=O)(O)OC[C@H]1O[C@@H](n2cnc3c(N)ncnc32)[C@H](O)[C@@H]1OP(=O)(O)O; format: biochemical, Bombyx mori; settings: 60 mM tryptamine, 300 mM Tris pH 8.0, 150 μM DTNB, 22°C
purified protein [4] = substrate: NCCc1c[nH]c2ccccc12; format: biochemical, Bombyx mori; settings: 100 μM oleoyl-CoA, 300 mM Tris pH 8.0, 150 μM DTNB, 22°C
purified protein [5] = substrate: CCCCCCCCCCCC(=O)SCCNC(=O)CCNC(=O)[C@H](O)C(C)(C)COP(=O)(O)OP(=O)(O)OC[C@H]1O[C@@H](n2cnc3c(N)ncnc32)[C@H](O)[C@@H]1OP(=O)(O)O; format: biochemical, Bombyx mori; settings: 60 mM tryptamine, 300 mM Tris pH 8.0, 150 μM DTNB, 22°C
purified protein [6] = substrate: NCCc1ccc(O)cc1; format: biochemical, Bombyx mori; settings: 100 μM oleoyl-CoA, 300 mM Tris pH 8.0, 150 μM DTNB, 22°C
purified protein [7] = substrate: CCCCCCCC/C=C\CCCCCCCC(=O)SCCNC(=O)CCNC(=O)[C@H](O)C(C)(C)COP(=O)(O)OP(=O)(O)OC[C@H]1O[C@@H](n2cnc3c(N)ncnc32)[C@H](O)[C@@H]1OP(=O)(O)O; format: biochemical, Bombyx mori; settings: 60 mM tryptamine, 300 mM Tris pH 8.0, 150 μM DTNB, 22°C
purified protein [8] = substrate: NC[C@H](O)c1ccc(O)cc1; format: biochemical, Bombyx mori; settings: 100 μM oleoyl-CoA, 300 mM Tris pH 8.0, 150 μM DTNB, 22°C

B1: Bm-iAANAT (insect arylalkylamine N-acyltransferase from Bombyx mori) (Bombyx mori) (protein)
chain: MAVTSTRGIVNLKEKGHFERENARVEKYTLGDELPAQLSSLEIRPRKMSVPAYTIQRLTYNDRDLVLKFLRRFFFRDEPMNLAVNLLETPESRCTELDDYAAATLSDGVSVAAVDENGDYVGVIINGIVRREEVDYTDKSEDCPNPKFRRILKVLGHLDREARIWDKLPETCDSVLEIRIASTHSSWRGRGLMRVLCEEAERLAKAMGAGALRMDTTSAFSAAAAERLNYKMAFGVRYADLPYAPQPEAPHLEARVYIKEL
Km (purified protein [1]): 1.1 ± 0.30 µM
kcat (purified protein [1]): 0.51 s⁻¹
kcat/Km (purified protein [1]): 490000 M⁻¹ s⁻¹
Km (purified protein [2]): 0.92 ± 0.20 µM
kcat (purified protein [2]): 0.66 ± 0.01 s⁻¹
kcat/Km (purified protein [2]): 720000 ± 150000 M⁻¹ s⁻¹
Km (purified protein [3]): 1.2 ± 0.67 µM
kcat (purified protein [3]): 0.27 ± 0.02 s⁻¹
kcat/Km (purified protein [3]): 240000 ± 130000 M⁻¹ s⁻¹
Km (purified protein [4]): 7.0 ± 0.5 mM
kcat (purified protein [4]): 0.72 ± 0.01 s⁻¹
kcat/Km (purified protein [4]): 100 ± 7 M⁻¹ s⁻¹
Km (purified protein [5]): 0.97 ± 0.12 µM
Km (purified protein [6]): 84 ± 12 mM
kcat (purified protein [6]): 2.7 ± 0.19 s⁻¹
kcat/Km (purified protein [6]): 32 ± 5.3 M⁻¹ s⁻¹
Km (purified protein [7]): 1.7 ± 0.51 µM
kcat (purified protein [7]): 0.42 ± 0.02 s⁻¹
kcat/Km (purified protein [7]): 240000 ± 70000 M⁻¹ s⁻¹
Km (purified protein [8]): 65 ± 16 mM
kcat (purified protein [8]): 0.31 ± 0.04 s⁻¹
kcat/Km (purified protein [8]): 4.7 ± 1.2 M⁻¹ s⁻¹
